{"source": "paper PMC5372681", "about": "“Study of Different Variants of Mo Enzyme crARC and the Interaction with Its Partners crCytb5-R and crCytb5-1” (International Journal of Molecular Sciences, 2017)", "binders": {"B1": {"name": "crCytb5-R, Chlamydomonas reinhardtii NADH cytochrome b5 reductase (enzyme)", "chain": "MEEAGSEVMRSVITLLSYWQVGAGLLVVLVLIQALVFLRKKTKKPFLDPSEFQPVPLVEKTLITHNTVRLRFALPDPEQRVGLPIGQHISFKAQGEDGKDVIRPYTPVSDDDQLGAVDFVIKLYPTGKMSQVIAKMQLGDTMLMKGPKGRFTYTPNMVKHFGMLAGGTGITPMFQVLNAILKNPRDTTSVTLLYGNLTEEDILLRKELDELVAMHGNRLTVYHVLNTPPVDKEWSGGSGFISSELIRTKFPAPSSDIMTLRCGPSPMMVAMEKALTDLGYAEDKQFQF"}}, "molecular_target": "T1, crARC, Chlamydomonas reinhardtii mARC (mitochondrial Amidoxime Reducing Component), wild type (Chlamydomonas reinhardtii)", "T1 construct": "crARC, Chlamydomonas reinhardtii mARC, GenPept XP_001694549; Carries the Mo Cofactor; The mutant cDNAs were cloned in pQE80 (N-terminal six histidines); also called wild type crARC; Mo enzyme crARC; source: E. coli TP1000 (mobA), purified (Ni-NTA, PD10 desalting)", "assay": "SEC; two proteins incubated together for 10 min, then loaded; 15 pmol of each; Superdex 200 10/300 GL, 50 mM phosphate buffer pH 7.2, 0.15 M NaCl, 0.75 mL/min; peak fractions checked by SDS-PAGE", "settings": "both partners purified", "data": [{"binder": "B1", "values": [{"measurement": "stoichiometry N", "value": 1, "unit": "crCytb5-R per crARC"}]}]}
